# Test results taken from PMC4718636, “Recombinant hTRBP and hPACT Modulate hAgo2-Catalyzed siRNA-Mediated Target RNA Cleavage In Vitro” (PLoS ONE, 2016).
# B1: His-hPACT (human protein activator of protein kinase R), purified under native conditions (natural protein, UniProt O75569 1-313, looked up)
# chain: MSQSRHRAEAPPLEREDSGTFSLGKMITAKPGKTPIQVLHEYGMKTKNIPVYECERSDVQIHVPTFTFRVTVGDITCTGEGTSKKLAKHRAAEAAINILKANASICFAVPDPLMPDPSKQPKNQLNPIGSLQELAIHHGWRLPEYTLSQEGGPAHKREYTTICRLESFMETGKGASKKQAKRNAAEKFLAKFSNISPENHISLTNVVGHSLGCTWHSLRNSPGEKINLLKRSLLSIPNTDYIQLLSEIAKEQGFNITYLDIDELSANGQYQCLAELSTSPITVCHGSGISCGNAQSDAAHNALQYLKIIAERK
# notes: No removal of the His tag is described; also called hPACT^nat; source: E. coli BL21 (DE3), purified under native conditions (Talon Superflow)
# Target: T1, GST-hAgo2 (human Argonaute2) (human, UniProt Q9UKV8 1-859)
# T1 construct: human Argonaute2 (hAgo2); In the cleavage assays hAgo2 stood with siRNA (hAgo2/siRNA complex); also called wt-hAgo2; hArgonaute2; source: expressed and purified as previously described [27]
# Experiment: pull-down; pulldown assays shown only in Figure I of the S1 Supporting Information File; format not given
# Conditions: both partners purified
# T1 sequence (Q9UKV8 whole entry): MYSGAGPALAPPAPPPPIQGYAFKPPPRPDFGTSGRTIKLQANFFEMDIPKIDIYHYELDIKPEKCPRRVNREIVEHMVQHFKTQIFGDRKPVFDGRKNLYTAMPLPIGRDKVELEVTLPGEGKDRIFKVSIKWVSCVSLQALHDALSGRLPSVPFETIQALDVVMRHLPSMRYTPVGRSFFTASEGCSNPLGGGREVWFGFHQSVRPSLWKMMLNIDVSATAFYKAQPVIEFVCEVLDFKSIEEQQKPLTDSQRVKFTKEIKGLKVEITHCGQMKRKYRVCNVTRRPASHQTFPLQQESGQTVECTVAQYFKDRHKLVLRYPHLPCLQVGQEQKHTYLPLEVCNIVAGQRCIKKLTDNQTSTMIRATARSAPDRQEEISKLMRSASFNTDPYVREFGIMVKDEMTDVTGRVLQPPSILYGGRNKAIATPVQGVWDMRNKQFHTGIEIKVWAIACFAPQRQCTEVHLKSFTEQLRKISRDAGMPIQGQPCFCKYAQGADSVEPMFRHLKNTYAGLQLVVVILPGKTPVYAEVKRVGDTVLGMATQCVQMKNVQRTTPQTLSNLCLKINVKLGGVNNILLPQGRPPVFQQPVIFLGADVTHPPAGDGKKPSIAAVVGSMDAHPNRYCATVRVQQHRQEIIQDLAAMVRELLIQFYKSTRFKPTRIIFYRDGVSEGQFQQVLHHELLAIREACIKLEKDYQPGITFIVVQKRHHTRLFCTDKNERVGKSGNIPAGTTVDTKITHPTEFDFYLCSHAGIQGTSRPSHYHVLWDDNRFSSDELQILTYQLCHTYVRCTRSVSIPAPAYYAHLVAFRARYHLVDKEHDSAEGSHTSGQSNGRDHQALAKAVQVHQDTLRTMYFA
binder,measurement,value
B1,binding result,binds
